One block for each binder: values may come before it.
Legend:
ILT4 (CHO-S/ILT4 cells) [1] = molecular target: ILT4 (CHO-S/ILT4 cells) (human); assay: FACS
ILT4 (CHO-S/ILT4 cells) [2] = molecular target: ILT4 (CHO-S/ILT4 cells) (human); assay: FACS, assay 2
ILT4 (CHO-S/ILT4 cells) [3] = molecular target: ILT4 (CHO-S/ILT4 cells) (human); assay: FACS, assay 4
ILT4 (CHO-S/ILT4 cells) [4] = molecular target: ILT4 (CHO-S/ILT4 cells) (human); assay: FACS, assay 3

Chain of ILT4 (CHO-S/ILT4 cells) (human) (chain, as listed by the source): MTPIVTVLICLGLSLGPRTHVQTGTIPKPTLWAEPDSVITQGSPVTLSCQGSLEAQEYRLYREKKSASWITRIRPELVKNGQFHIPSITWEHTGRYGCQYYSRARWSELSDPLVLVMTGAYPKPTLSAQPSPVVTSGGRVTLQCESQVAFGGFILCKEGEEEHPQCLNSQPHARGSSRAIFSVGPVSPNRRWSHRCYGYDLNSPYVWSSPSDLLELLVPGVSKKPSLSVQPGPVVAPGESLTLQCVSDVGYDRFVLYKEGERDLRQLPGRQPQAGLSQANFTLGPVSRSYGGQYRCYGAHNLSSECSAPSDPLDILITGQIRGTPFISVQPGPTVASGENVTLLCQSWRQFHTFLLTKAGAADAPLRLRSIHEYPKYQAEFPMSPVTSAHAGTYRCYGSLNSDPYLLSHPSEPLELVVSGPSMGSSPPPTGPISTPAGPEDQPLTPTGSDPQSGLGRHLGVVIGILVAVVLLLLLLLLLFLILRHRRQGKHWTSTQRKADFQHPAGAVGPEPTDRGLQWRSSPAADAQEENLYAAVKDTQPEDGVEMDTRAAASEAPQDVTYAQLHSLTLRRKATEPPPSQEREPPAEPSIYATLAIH

EC50 (ILT4 (CHO-S/ILT4 cells) [1]): 0.045 µg/mL
B1: huP2-G9 (antibody, V domains shown)
VH: EVQLQESGPGLVKPSQTLSLTCTVSGSSITSGYYWNWIRQHPGKGLEWIGYLSYDGSNNYNPSLKNLVTISRDTSKNQFSLKLSSVTAADTAVYYCAREGAHYSGTLSWFAYWGQGTLVTVSS
VL: DIQMTQSPSSLSASVGDRVTITCRASENIYSNLAWYQQKPGKSPKLLVYAATNLADGVPSRFSGSGSGTDYTLTISSLQPEDFATYYCQHFWDTPYTFGGGTKVEIK

EC50 (ILT4 (CHO-S/ILT4 cells) [2]): 0.0415 µg/mL | EC50 (ILT4 (CHO-S/ILT4 cells) [3]): 0.0139 µg/mL | EC50 (ILT4 (CHO-S/ILT4 cells) [4]): 0.301 µg/mL
B2: MK (antibody, V domains shown)
VH: EVQLQQWGAGLLKPSETLSLTCAVYGGSFSGYYWSWIRQPPGKGLEWIGEINHAGSTNYNPSLKSRVTISVDTSKNQFSLKLSSVTAADTAVYYCARLPTRWVTTRYFDLWGRGTLVTVSS
VL: ESVLTQPPSVSGAPGQRVTISCTGSSSNIGAGYDVHWYQQLPGTAPKLLIYGDSNRPSGVPDRFSVSKSGASASLAITGLQAEDEADYYCQSFDNSLSAYVFGGGTQLTVLG

EC50 (ILT4 (CHO-S/ILT4 cells) [1]): 0.0163 µg/mL
B3: P2m (antibody, V domains shown)
VH: QVQLVQSGAEVKKPGSSVKVSCKASGYTFTSYDISWVRQAPGQGLEWMGGIIPIFGTANYAQKFQGRVTITADESTSTAYMELSSLRSEDTAVYYCTAGIFLATAYWGQGTLVTVSS
VL: DIQMTQSPSSMSASVGDRVTISCQASQDIQNYLNWYQQRPGQAPKLLIYDASTLETGVPSRFSGSGSGTYFTLTISSLQPEDVATYYCQQYENVPITFGQGTRLEIK

EC50 (ILT4 (CHO-S/ILT4 cells) [1]): 0.0368 µg/mL
B4: huP2-C6 (antibody, V domains shown)
VH: EVQLVQSGAEVKKPGASVKVSCKASGYTFTDYYIHWVRQAPGQGLEWMGYIYPDTGYSGYNQKFKGRVTMTVDKSTSTAYMELRSLRSDDTAVYYCTRRGDYSGVHFDYWGQGTTVTVSS
VL: DIVLTQSPDSLAVSLGERATINCRASESVNNYGVGFLHWYQQKPGQPPKLLIYRASTLESGIPDRFSGSGSGTDFTLTISSLQAEDVAVYYCQHSYKDPPWTFGGGTKVEIK
